# Numbering of substitutions follows the chain as printed. Names and notes keep the numbering of the source.
# T1: mouse FcγRI (mouse, UniProt P26151 25-297)
# T1 construct: also called mFcγRI
# T1 sequence: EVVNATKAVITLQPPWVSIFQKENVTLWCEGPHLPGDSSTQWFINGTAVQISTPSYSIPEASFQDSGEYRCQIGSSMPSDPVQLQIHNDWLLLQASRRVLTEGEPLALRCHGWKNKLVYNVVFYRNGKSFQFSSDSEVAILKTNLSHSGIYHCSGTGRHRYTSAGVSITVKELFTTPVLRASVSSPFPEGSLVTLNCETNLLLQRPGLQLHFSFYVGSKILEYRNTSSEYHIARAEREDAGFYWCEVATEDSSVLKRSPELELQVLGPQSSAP
# T2: mouse FcγRIII (mouse, UniProt P08508 31-215)
# T2 construct: also called mFcγRIII; mFcγR3
# T2 sequence: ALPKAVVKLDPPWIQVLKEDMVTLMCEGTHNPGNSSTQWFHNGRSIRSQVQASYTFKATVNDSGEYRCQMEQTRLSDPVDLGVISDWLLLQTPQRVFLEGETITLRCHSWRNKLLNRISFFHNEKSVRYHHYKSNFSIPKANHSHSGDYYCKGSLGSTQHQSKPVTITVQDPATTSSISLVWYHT
# T3: mouse FcγRIIb (mouse, UniProt P08101 30-210)
# T3 construct: also called mFcγRIIb; mFcγR2b
# T3 sequence: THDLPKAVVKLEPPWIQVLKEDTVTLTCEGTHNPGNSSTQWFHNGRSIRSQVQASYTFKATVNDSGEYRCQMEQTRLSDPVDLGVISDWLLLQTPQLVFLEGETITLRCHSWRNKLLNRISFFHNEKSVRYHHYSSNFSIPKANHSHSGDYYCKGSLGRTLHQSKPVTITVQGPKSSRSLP
# T4: mouse FcγRIV (mouse, UniProt A0A0B4J1G0 21-203)
# T4 construct: also called mFcγRIV
# T4 sequence: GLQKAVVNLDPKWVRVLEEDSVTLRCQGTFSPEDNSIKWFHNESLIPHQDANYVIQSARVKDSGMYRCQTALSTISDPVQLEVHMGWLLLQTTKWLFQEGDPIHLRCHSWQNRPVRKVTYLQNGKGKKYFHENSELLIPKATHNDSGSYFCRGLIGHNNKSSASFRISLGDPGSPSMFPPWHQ
# T5: human FcγR2B (human, UniProt P31994 43-217)
# T5 construct: also called huFcγR2B
# T5 sequence: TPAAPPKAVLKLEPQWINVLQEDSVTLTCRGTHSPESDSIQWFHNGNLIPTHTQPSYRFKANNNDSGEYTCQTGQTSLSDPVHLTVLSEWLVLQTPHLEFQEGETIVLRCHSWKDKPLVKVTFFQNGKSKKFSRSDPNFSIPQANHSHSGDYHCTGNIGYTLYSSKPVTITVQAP
# T6: human FcγR2A (R131) (human, UniProt P12318 34-217)
# T6 construct: also called huFcγR2A
# T6 sequence: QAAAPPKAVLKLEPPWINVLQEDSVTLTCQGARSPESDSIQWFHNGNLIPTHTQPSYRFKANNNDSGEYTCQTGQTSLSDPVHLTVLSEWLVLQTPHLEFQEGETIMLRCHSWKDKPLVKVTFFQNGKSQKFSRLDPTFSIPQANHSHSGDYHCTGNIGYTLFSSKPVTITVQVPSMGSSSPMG
# T7: EBOV GP displayed on vesicular stomatitis virus (VSV) pseudovirions (Ebola virus, UniProt Q05320 33-676)
# T7 sequence: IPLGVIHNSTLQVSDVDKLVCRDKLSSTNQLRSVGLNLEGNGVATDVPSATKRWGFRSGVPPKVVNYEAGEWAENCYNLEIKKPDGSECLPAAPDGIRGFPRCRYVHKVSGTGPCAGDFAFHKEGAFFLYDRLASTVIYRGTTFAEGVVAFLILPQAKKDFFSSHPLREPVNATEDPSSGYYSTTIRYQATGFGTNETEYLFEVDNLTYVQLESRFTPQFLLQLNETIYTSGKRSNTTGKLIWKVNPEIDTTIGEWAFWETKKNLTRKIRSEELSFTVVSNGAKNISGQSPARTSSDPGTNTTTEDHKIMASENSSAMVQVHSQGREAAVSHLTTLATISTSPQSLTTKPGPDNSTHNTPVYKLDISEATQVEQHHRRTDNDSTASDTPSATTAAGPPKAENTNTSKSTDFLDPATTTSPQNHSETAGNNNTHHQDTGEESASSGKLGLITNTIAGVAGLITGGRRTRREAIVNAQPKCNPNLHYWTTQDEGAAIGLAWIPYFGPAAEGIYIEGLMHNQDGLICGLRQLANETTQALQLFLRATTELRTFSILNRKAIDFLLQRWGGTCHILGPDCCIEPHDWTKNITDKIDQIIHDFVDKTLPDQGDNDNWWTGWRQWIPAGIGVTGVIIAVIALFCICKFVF
# B1: VIC16-IgG1 (antibody)
# heavy: not shown
# light: DIVITQDTASLAVSRGQRATISCRASESVEYYGTTLMQWYQQRPGQPPKLLIYGASNVESGVPARFSGSGSGTDFSLNIHPVEEDDIAMYFCQQSRKVPYTFGGGTKLEIKRTVAAPSVFIFPPSDEQLKSGTASVVCLLNNFYPREAKVQWKVDNALQSGNSQESVTEQDSKDSTYSLSSTLTLSKADYEKHKVYACEVTHQGLSSPVTKSFNRGEC
# notes: also called VIC16 human IgG1; wild type IgG1
# B2: VIC16-DVNH (antibody)
# heavy: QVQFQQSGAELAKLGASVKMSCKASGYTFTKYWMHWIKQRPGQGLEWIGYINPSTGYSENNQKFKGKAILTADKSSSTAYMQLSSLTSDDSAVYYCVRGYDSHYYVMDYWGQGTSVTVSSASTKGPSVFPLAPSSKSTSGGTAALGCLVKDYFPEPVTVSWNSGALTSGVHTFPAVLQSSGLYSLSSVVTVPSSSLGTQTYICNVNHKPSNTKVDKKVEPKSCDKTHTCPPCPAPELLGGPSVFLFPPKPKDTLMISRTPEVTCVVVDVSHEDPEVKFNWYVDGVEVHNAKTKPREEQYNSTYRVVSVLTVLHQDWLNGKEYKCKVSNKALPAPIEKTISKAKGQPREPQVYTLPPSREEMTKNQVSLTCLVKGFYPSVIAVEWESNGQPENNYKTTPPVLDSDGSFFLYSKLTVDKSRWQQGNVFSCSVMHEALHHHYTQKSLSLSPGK
# light: B1 light
# B3: VIC16-E333A (antibody)
# heavy: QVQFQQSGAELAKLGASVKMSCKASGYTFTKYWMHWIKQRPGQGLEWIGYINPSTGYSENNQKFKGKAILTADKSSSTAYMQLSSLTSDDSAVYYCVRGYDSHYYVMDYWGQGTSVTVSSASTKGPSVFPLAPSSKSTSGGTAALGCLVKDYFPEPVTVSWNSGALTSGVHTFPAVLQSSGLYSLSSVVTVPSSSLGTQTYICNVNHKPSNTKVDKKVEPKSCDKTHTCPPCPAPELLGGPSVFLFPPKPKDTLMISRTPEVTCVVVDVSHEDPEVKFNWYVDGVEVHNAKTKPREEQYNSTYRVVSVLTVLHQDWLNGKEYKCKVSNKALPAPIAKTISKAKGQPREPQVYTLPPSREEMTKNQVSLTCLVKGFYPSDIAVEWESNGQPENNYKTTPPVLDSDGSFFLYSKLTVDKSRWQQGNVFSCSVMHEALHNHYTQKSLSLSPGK
# light: B1 light
# B4: VIC16-EANA (antibody)
# heavy: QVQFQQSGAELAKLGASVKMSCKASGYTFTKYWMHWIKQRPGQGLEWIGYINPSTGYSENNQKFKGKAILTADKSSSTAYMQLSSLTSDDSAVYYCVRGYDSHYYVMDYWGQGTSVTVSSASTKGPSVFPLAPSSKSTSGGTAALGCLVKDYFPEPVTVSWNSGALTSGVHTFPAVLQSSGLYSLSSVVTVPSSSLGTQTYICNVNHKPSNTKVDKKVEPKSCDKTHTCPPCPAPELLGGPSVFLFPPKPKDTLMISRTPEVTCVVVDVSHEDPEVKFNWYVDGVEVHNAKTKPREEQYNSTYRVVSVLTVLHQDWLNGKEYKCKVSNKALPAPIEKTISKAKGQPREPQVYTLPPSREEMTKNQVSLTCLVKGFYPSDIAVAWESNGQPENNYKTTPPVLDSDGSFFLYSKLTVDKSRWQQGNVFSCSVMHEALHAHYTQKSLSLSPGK
# light: B1 light
# B5: VIC16-EFTEA (antibody)
# heavy: QVQFQQSGAELAKLGASVKMSCKASGYTFTKYWMHWIKQRPGQGLEWIGYINPSTGYSENNQKFKGKAILTADKSSSTAYMQLSSLTSDDSAVYYCVRGYDSHYYVMDYWGQGTSVTVSSASTKGPSVFPLAPSSKSTSGGTAALGCLVKDYFPEPVTVSWNSGALTSGVHTFPAVLQSSGLYSLSSVVTVPSSSLGTQTYICNVNHKPSNTKVDKKVEPKSCDKTHTCPPCPAPELLAGPSVFLFPPKPKDTLMISRTPEVTCVVVDVEFEDPEVKFNWYVDGVEVHNAKTKPREEQYNSTYRVVSVLTVLHQDWLNGKEYKCKVTNKALPAPEEKTISKAKGQPREPQVYTLPPSREEMTKNQVSLTCLVKGFYPSDIAVEWESNGQPENNYKTTPPVLDSDGSFFLYSKLTVDKSRWQQGNVFSCSVMHEALHNHYTQKSLSLSPGK
# light: B1 light
# B6: VIC16-K326W (antibody)
# heavy: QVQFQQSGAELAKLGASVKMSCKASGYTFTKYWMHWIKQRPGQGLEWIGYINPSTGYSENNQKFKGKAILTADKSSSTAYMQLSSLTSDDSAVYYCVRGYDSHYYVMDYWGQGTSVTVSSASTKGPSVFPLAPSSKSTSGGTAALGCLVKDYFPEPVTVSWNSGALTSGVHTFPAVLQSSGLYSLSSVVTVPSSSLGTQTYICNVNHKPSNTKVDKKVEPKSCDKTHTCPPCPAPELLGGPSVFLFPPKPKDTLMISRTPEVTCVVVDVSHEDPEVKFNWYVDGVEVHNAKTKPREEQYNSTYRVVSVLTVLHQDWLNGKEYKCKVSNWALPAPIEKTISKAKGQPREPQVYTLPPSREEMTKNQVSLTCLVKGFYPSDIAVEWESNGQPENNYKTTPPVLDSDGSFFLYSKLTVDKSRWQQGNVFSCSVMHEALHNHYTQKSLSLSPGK
# light: B1 light
# B7: VIC16-KWES (antibody)
# heavy: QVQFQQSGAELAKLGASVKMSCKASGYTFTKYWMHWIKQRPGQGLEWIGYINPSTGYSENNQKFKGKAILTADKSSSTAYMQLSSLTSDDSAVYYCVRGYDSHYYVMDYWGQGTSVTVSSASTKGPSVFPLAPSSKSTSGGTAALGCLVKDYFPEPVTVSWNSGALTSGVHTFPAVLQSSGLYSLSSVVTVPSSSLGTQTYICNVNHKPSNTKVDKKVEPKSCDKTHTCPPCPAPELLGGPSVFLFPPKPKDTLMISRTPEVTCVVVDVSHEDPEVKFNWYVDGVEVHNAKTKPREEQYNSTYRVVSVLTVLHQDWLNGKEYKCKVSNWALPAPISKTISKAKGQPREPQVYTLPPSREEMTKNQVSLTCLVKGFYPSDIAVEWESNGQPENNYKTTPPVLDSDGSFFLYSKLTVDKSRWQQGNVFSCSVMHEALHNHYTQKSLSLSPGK
# light: B1 light
# B8: VIC16-MLNS (antibody)
# heavy: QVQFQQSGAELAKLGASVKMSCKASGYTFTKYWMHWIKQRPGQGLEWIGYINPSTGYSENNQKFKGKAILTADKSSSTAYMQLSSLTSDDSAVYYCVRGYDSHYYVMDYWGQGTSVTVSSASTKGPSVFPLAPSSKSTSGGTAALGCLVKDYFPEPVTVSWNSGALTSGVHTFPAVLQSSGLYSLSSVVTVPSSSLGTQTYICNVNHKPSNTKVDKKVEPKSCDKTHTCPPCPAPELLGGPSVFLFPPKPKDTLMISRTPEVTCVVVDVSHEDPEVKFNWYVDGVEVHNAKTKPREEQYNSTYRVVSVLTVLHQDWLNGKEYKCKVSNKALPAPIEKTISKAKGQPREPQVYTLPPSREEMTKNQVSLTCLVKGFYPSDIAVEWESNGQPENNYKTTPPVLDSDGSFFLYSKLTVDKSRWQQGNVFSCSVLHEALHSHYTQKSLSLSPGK
# light: B1 light
# B9: VIC16-SAEAKA (antibody)
# heavy: B5 heavy with A239G, E270S, F271H, S301A, T327S, E335I, E336A, K337A
# light: B1 light
# B10: VIC16-SAEAKA-LS (antibody)
# heavy: B5 heavy with A239G, E270S, F271H, S301A, T327S, E335I, E336A, K337A, M431L, N437S
# light: B1 light
# B11: VIC16-SDIESA-LS (antibody)
# heavy: B5 heavy with A239G, S242D, E270S, F271H, S301A, T327S, M431L, N437S
# light: B1 light
# B12: VIC16-SELF (antibody)
# heavy: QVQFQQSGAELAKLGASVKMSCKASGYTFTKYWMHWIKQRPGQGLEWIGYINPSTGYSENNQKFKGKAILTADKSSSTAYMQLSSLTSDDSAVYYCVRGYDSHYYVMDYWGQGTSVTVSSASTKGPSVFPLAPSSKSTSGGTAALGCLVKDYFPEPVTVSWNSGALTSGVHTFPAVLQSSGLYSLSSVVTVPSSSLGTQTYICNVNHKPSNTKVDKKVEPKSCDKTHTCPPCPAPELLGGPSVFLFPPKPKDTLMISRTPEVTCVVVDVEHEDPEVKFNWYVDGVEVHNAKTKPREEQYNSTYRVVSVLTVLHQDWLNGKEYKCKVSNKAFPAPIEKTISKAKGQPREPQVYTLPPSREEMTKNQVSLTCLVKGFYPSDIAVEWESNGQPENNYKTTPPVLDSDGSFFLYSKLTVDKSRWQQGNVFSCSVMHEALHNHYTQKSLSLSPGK
# light: B1 light
# Experiments:
# mouse FcγRI = molecular target: T1, mouse FcγRI; experiment: BLI, mAb on anti-human Fab-CH1 sensor, FcγR in solution
# mouse FcγRIII = molecular target: T2, mouse FcγRIII; experiment: as above
# mouse FcγRIIb [1] = molecular target: T3, mouse FcγRIIb; experiment: as above
# mouse FcγRIV [2] = molecular target: T4, mouse FcγRIV; experiment: as above
# human FcγR2B = molecular target: T5, human FcγR2B; experiment: SPR, mAb printed on chip, FcγR injected
# human FcγR3A (F158) = molecular target: T8, human FcγR3A (F158) (human, UniProt P08637 17-208); experiment: SPR, mAb printed on chip, FcγR injected
# T8 construct: also called huFcγR3A
# T8 sequence (P08637 17-208): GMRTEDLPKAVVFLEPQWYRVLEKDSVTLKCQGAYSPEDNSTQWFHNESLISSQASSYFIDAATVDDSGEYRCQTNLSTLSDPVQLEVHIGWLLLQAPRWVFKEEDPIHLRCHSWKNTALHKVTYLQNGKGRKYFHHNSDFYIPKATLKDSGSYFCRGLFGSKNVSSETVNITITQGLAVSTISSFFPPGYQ
# human FcγR2A (R131) [3] = molecular target: T6, human FcγR2A (R131); experiment: SPR, mAb printed on chip, FcγR injected
# human FcγR3B [4] = molecular target: T9, human FcγR3B (human, UniProt O75015 17-200); experiment: SPR, mAb printed on chip, FcγR injected
# T9 construct: also called huFcγR3B
# T9 sequence (O75015 17-200): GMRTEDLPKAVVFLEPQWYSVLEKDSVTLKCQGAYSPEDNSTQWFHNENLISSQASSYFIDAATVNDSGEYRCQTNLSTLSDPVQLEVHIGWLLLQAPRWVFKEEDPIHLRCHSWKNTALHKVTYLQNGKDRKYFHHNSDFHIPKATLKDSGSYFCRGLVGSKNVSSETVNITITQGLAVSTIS
# mouse FcγRIV [5] = molecular target: T4, mouse FcγRIV; experiment: SPR (IBIS MX96): mAb printed on the chip, recombinant FcγR injected at 10 to 0.005 µM; axis 'KD, M^-1', that is the reciprocal of KD
# mouse FcγRIIb [6] = molecular target: T3, mouse FcγRIIb; experiment: as above
# [7] = molecular target: T7, EBOV GP displayed on vesicular …; experiment: cell-based or functional assay
# mouse FcγRIIb [8] = molecular target: T3, mouse FcγRIIb; experiment: BLI, mAb on anti-human Fab-CH1 sensor, FcγR in solution; remark: listed apart in the source
# human FcγR2A (R131) [9] = molecular target: T6, human FcγR2A (R131); experiment: SPR, mAb printed on chip, FcγR injected; remark: listed apart in the source
# human FcγR3B [10] = molecular target: T9, human FcγR3B; experiment: SPR, mAb printed on chip, FcγR injected; ND = not detected
# human FcγR3B [11] = molecular target: T9, human FcγR3B; experiment: SPR (IBIS MX96): mAb printed on the chip, recombinant FcγR injected at 10 to 0.005 µM; axis 'KD, M^-1', that is the reciprocal of KD
binder,measurement,setting,value
B1,Kd,mouse FcγRI,80 nM
same,fold-change relative to IgG1,mouse FcγRI,1 fold
same,Kd,mouse FcγRIII,2830 nM
same,fold-change relative to IgG1,mouse FcγRIII,1 fold
same,Kd,mouse FcγRIIb [1],14900 nM
same,fold-change relative to IgG1,mouse FcγRIIb [1],1 fold
same,Kd,mouse FcγRIV [2],240 nM
same,fold-change relative to IgG1,mouse FcγRIV [2],1 fold
same,Kd,human FcγR2B,23000 nM
same,fold-change relative to IgG1,human FcγR2B,1 fold
same,Kd,human FcγR3A (F158),6100 nM
same,fold-change relative to IgG1,human FcγR3A (F158),1 fold
same,Kd,human FcγR2A (R131) [3],30000 nM
same,fold-change relative to IgG1,human FcγR2A (R131) [3],1 fold
same,Kd,human FcγR3B [4],25000 nM
same,fold-change relative to IgG1,human FcγR3B [4],1 fold
B2,binding result,mouse FcγRIV [5],binds
B3,binding result,mouse FcγRIIb [6],binds
B4,binding result,mouse FcγRIIb [6],binds
B5,"IC50, neutralization of VSV pseudotyped to display EBOV GP",[7],< 1 µg/mL
same,Kd,mouse FcγRI,60 nM
same,fold-change relative to IgG1,mouse FcγRI,1.3 fold
same,Kd,mouse FcγRIII,1100 nM
same,fold-change relative to IgG1,mouse FcγRIII,9 fold
same,Kd,mouse FcγRIIb [1],490 nM
same,fold-change relative to IgG1,mouse FcγRIIb [1],30 fold
same,Kd,mouse FcγRIV [2],120 nM
same,fold-change relative to IgG1,mouse FcγRIV [2],2 fold
same,Kd,human FcγR2B,1200 nM
same,fold-change relative to IgG1,human FcγR2B,19 fold
same,Kd,human FcγR3A (F158),6100 nM
same,fold-change relative to IgG1,human FcγR3A (F158),1 fold
same,Kd,human FcγR2A (R131) [3],252 nM
same,fold-change relative to IgG1,human FcγR2A (R131) [3],119 fold
same,Kd,human FcγR3B [4],475000 nM
same,fold-change relative to IgG1,human FcγR3B [4],0.05 fold
same,fold increase in binding,mouse FcγRIIb [8],2 fold
same,fold higher KD compared to IgG1,human FcγR2A (R131) [9],120 fold
B6,binding result,mouse FcγRIV [5],binds
B7,"IC50, neutralization of VSV pseudotyped to display EBOV GP",[7],< 1 µg/mL
same,Kd,mouse FcγRI,70 nM
same,fold-change relative to IgG1,mouse FcγRI,1.1 fold
same,Kd,mouse FcγRIII,20 nM
same,fold-change relative to IgG1,mouse FcγRIII,0.94 fold
same,Kd,mouse FcγRIIb [1],46000 nM
same,fold-change relative to IgG1,mouse FcγRIIb [1],0.3 fold
same,Kd,mouse FcγRIV [2],160 nM
same,fold-change relative to IgG1,mouse FcγRIV [2],1.5 fold
same,binding result,human FcγR3B [10],no binding (tested: FcγR 10 µM to 0.005 µM)
same,Kd,human FcγR2B,224000 nM
same,fold-change relative to IgG1,human FcγR2B,0.12 fold
same,Kd,human FcγR3A (F158),1600 nM
same,fold-change relative to IgG1,human FcγR3A (F158),3.8 fold
same,Kd,human FcγR2A (R131) [3],8600 nM
same,fold-change relative to IgG1,human FcγR2A (R131) [3],3.4 fold
B8,binding result,mouse FcγRIV [5],binds
B9,binding result,mouse FcγRIIb [6],binds
same,binding result,mouse FcγRIV [5],binds
B10,binding result,mouse FcγRIIb [6],binds
same,binding result,mouse FcγRIV [5],binds
same,binding result,human FcγR3B [11],binds
B11,binding result,mouse FcγRIV [5],binds
same,binding result,human FcγR3B [11],binds
B12,binding result,mouse FcγRIV [5],binds

# Source: US20240109954A1 (GENERAL HOSPITAL, published 2024)
